From patent publication US20240108766A1 (Bayer, published 2024)
Residue numbers refer to the chain shown, from its start.

B1: TPP-12942 (antibody, human IgG1, kappa, V domains shown)
VH: EVQLVQSGAEVKKPGASVKVSCKASGYKFSSYWIEWVKQAPGQGLEWIGEILPGSDTTNYNEKFKDRATFTSDTSINTAYMELSRLRSDDTAVYYCARDRGNYRAWFGYWGQGTLVTVSS
VL: DIQMTQSPSSLSASVGDRVTITCRASQDISNYLNWYQQKPGGAVKFLIYYTSRLHSGVPSRFSGSGSGTDYTLTISSLQPEDFATYFCQQGEALPWTFGGGTKVEIKR
notes: Prior art humanized IgG1 kappa antibody, used as comparator; also called huM25; huM25-hIgG1Kappa
B2: TPP-17078 (antibody, human IgG1, kappa, V domains shown)
VH: B1 VH
VL: B1 VL with D28S, N31S, V44P, T51A, R53S, H55Q, F87Y, E92F, A93S
notes: also called 438H-M308-H05-hIgGkappa
B3: TPP-17421 (antibody, human IgG1, kappa, V domains shown)
VH: B1 VH with T57W, G108Q
VL: B1 VL with D28S, N31S, V44P, T51A, R53S, H55Q, F87Y, E92L, A93E
notes: also called 438H-M306-C11-hIgG1Kappa
B4: TPP-14389 (antibody, human IgG1, kappa, V domains shown)
VH: EVQLLESGGGLVQPGGSLRLSCAASGFTFSGYMMSWVRQAPGKGLEWVSGIYPSPGYTYYADSVKGRFTISRDNSKNTLYLQMNSLRAEDTAVYYCAREKASDLFGSYSEALDYWGQGTLVTVSS
VL: DIQMTQSPDSLSASVGDRVTITCRASQDVGSWLAWYQQKPGKAPKLLIFAASSLESGIPSRFSGSGSGTDFTLTISSLQPEDFATYYCQQANGFPLTFGGGTKVEIKR
notes: also called 13612-rec02-hIgG1Kappa

Experiments:
[1] = biological target: T1, human LRRC15 expressed on cells (human, UniProt Q8TF66 22-581); assay: flow cytometry, transfected HEK293, 0 µg/ml
T1 construct: whole, on cells; On HEK293 cells transfected with LRRC15/ZsGreen1 (Retrogenix), on HT29 cells transfected with human LRRC15, and endogenous on Saos-2; also called LRRC15/ZsGreen1 transfected HEK293 cells; HT29-LRRC15
T1 sequence (looked up): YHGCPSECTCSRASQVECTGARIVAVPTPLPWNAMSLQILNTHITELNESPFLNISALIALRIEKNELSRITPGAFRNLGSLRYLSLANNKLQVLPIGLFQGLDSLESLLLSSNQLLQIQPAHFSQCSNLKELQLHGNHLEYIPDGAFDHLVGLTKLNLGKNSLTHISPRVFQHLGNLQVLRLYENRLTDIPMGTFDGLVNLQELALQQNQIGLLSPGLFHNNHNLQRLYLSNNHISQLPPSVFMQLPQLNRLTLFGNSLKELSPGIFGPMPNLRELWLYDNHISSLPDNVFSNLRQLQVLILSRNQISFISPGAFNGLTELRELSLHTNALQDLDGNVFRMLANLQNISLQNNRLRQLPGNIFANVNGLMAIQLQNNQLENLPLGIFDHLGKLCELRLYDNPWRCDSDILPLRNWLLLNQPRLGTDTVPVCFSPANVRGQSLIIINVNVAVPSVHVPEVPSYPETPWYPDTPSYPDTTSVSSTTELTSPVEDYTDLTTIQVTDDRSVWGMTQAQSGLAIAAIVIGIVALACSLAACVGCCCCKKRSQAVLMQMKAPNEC

[2] = biological target: T1, human LRRC15 expressed on cells; assay: flow cytometry, transfected HEK293, 12.5 µg/ml
[3] = biological target: T1, human LRRC15 expressed on cells; assay: flow cytometry, transfected HEK293, 2.5 µg/ml
[4] = biological target: T1, human LRRC15 expressed on cells; assay: flow cytometry, transfected HEK293, 0.1 µg/ml
[5] = biological target: T2, Ephrin type-B receptor 6 (EPHB6) on transfected HEK293 cells (human, UniProt O15197 32-1021); assay: flow cytometry, transfected HEK293, 62.5 µg/ml
T2 construct: whole, on cells; also called EPHB6/ZsGreen1
T2 sequence (looked up): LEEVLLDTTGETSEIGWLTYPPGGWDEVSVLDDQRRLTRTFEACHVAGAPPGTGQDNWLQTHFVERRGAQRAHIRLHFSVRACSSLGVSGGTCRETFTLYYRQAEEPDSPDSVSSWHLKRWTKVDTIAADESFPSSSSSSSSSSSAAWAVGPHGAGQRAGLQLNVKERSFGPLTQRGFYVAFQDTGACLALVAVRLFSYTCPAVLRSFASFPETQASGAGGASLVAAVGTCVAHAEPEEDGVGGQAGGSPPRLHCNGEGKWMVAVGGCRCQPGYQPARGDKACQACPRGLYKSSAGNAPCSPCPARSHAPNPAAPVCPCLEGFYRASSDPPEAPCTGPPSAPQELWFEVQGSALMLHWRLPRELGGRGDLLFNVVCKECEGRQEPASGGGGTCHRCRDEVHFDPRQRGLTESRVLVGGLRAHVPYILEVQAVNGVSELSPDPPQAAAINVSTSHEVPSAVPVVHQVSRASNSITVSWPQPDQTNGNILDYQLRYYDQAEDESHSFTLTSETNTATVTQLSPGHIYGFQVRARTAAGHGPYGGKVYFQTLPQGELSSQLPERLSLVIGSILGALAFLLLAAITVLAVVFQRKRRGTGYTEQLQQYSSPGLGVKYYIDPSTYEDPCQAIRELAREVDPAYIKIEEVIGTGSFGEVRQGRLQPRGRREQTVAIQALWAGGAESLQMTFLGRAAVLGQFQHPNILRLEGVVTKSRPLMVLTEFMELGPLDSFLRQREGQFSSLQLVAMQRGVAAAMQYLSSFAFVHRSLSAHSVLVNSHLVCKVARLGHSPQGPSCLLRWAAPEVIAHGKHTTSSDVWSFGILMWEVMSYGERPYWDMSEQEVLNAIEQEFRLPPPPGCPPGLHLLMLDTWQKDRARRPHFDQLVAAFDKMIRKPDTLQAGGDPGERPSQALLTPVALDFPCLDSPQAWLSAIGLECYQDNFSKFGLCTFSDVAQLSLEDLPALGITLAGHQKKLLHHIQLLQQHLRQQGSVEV

[6] = biological target: T3, human LRRC15 extracellular domain with C-terminal His tag (human, UniProt Q8TF66 22-538); assay: calculated from SPR kd, 25°C
T3 construct: Recombinant, made in HEK293; the entry holds the extracellular domain and the His tag; SPR analyte; also called TPP-1545; hLRRC15 CT-His
T3 sequence: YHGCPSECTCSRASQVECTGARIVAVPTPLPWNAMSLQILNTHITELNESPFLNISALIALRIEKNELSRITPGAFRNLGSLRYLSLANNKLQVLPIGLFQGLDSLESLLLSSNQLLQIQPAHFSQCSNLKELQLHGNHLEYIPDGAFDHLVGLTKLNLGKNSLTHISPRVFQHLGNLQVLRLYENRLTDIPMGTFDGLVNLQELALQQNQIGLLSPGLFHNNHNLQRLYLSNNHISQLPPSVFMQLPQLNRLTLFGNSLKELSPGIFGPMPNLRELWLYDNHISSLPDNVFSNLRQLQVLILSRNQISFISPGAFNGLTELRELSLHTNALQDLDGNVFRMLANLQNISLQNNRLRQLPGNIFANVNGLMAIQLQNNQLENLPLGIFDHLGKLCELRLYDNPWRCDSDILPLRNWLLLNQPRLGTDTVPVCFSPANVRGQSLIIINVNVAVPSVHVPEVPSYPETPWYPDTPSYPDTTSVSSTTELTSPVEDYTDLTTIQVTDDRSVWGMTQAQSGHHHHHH
Procedure: To assess if anti-LRRC-15 antibodies show a difference in binding at different temperatures, binding assays were conducted using surface plasmon resonance (SPR). Binding assays were performed on a Biacore T200 instrument at temperatures of 10° C., 20° C., 25° C. and 37° C. with assay buffer HBS EP+, 1 mg/ml BSA (bovine serum albumine), 300 mM NaCl, 0.05% NaN₃. Antibodies were captured via anti-human Fc IgGs covalently amine coupled to a CM5 sensor chip and human LRRC15 was used as an analyte in a concentration series from 1.56-200 nM in multi cycle kinetics mode. Pre-experiments were conducted to have an equal capture level at each temperature. Obtained sensorgrams were fitted to a 1:1 Langmuir binding model to derive kinetic data.

[7] = biological target: T2, Ephrin type-B receptor 6 (EPHB6) on …; assay: flow cytometry, transfected HEK293, 0.004 µg/ml

Binder	Median Fluorescence AF647 [1]	Median Fluorescence AF647 [2]	Median Fluorescence AF647 [3]	Median Fluorescence AF647 [4]	Median Fluorescence AF647 [5]	Complex Half Life [6]	Median Fluorescence AF647 [7]
B1	594	726000	746000	213000			
B2	597	707000	777000	284000	14600	2.12 h	1780
B3	588	736000	649000	102000	9050	3.63 h	1250
B4						0.148 h	
